Residue numbers refer to the chain shown, from its start. Numbers in names are those of the source.
T1: EsCas13d, nuclease-dead (Eubacterium siraeum, UniProt B0MS50, R295A;H300A;R849A;H854A)
T1 sequence: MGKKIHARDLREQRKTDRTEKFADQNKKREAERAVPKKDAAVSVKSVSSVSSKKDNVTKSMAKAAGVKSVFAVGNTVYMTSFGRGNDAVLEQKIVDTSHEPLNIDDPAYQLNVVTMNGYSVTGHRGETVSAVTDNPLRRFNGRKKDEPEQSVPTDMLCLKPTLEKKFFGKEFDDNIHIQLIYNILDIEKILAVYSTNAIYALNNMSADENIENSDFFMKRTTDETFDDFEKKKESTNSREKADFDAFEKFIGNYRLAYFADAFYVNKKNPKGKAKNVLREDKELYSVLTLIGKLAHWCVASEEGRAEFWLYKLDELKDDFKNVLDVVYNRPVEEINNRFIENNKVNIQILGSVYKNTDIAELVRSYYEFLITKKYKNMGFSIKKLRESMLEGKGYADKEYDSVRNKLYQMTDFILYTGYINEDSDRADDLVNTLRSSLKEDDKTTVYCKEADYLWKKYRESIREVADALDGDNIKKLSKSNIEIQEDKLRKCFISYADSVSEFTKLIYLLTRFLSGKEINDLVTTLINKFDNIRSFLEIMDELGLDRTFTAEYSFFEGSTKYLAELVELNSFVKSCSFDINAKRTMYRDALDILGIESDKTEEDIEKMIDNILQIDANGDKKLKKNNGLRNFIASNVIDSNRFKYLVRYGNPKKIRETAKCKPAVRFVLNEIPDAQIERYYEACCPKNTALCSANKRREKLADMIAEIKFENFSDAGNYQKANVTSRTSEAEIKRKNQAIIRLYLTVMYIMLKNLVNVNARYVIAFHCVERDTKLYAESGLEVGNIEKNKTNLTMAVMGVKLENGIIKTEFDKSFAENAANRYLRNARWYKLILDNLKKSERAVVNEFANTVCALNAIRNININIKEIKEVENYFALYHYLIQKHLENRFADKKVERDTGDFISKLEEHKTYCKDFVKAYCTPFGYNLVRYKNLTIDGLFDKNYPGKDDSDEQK

B1: target 3 A12C,U22C (mixed)
RNA 1: CACCCGUGCAAAAUUGCAGGGGUCUAAAACGACCUGAAUAUUUCAGAUCAAA
RNA 2: GGGAAUGGAUCCACAUCUACGAAUUCGUUCUUGAUCUGACAUAUUCAGGUCUGCAGAUCGGAAGAGCACACGU
B2: target 3 U22C (mixed)
RNA 1: B1 RNA 1
RNA 2: B1 RNA 2 with C40A
B3: target 3 U7A,U22C (mixed)
RNA 1: B1 RNA 1
RNA 2: B1 RNA 2 with C40A, U45A
B4: target 3 insC 3' of 8,insC 3' of 3 (mixed)
RNA 1: B1 RNA 1
RNA 2: GGGAAUGGAUCCACAUCUACGAAUUCGUUUUUGAUCUGAAAUAUCUCAGGCUCUGCAGAUCGGAAGAGCACACGU
B5: target 3 U2A,G4C (mixed)
RNA 1: B1 RNA 1
RNA 2: B1 RNA 2 with C30U, C40A, G48C, U50A
B6: target 3 C1A,A9G (mixed)
RNA 1: B1 RNA 1
RNA 2: B1 RNA 2 with C30U, C40A, A43G, C51A
B7: target 3 insU 3' of 22,insA 3' of 2 (mixed)
RNA 1: B1 RNA 1
RNA 2: GGGAAUGGAUCCACAUCUACGAAUUCGUUUUUUGAUCUGAAAUAUUCAGGUACUGCAGAUCGGAAGAGCACACGU
B8: target 3 U2G,U7A (mixed)
RNA 1: B1 RNA 1
RNA 2: B1 RNA 2 with C30U, C40A, U45A, U50G
B9: target 3 U2G,C6A (mixed)
RNA 1: B1 RNA 1
RNA 2: B1 RNA 2 with C30U, C40A, C46A, U50G
B10: target 3 C1G,U22C (mixed)
RNA 1: B1 RNA 1
RNA 2: B1 RNA 2 with C40A, C51G
B11: target 3 G4A,C6G (mixed)
RNA 1: B1 RNA 1
RNA 2: B1 RNA 2 with C30U, C40A, C46G, G48A
B12: target 3 C16U,U22C (mixed)
RNA 1: B1 RNA 1
RNA 2: B1 RNA 2 with C36U, C40A
B13: target 3 del21,del22 (mixed)
RNA 1: B1 RNA 1
RNA 2: GGGAAUGGAUCCACAUCUACGAAUUCGUUUGAUCUGAAAUAUUCAGGUCUGCAGAUCGGAAGAGCACACGU
B14: target 3 insC 3' of 5,insC 3' of 3 (mixed)
RNA 1: B1 RNA 1
RNA 2: B4 RNA 2 with C45U, U46C, C47A, A48C
B15: target 3 insG 3' of 7,insC 3' of 7 (mixed)
RNA 1: B1 RNA 1
RNA 2: B4 RNA 2 with C45U, U46G, A48C, G49A, C51G
B16: target 1 insU 3' of 20,insA 3' of 2 (mixed)
RNA 1: CACCCGUGCAAAAAUGCAGGGGUCUAAAACUGAGCGGAUAACCUCUCUAUGG
RNA 2: GGGAAUGGAUCCACAUCUACGAAUUCGUACCAUUAGAGAGGUUAUCCGCUCAACCGAGAUCGGAAGAGCACACGU

molecular target: T1, EsCas13d, nuclease-dead; assay: crRNA (strand 1, pre-loaded); Mg2+; 40 mM Tris-HCl pH 7.5, 150 mM NaCl, 6 mM MgCl2, 1 mM DTT, 0.1% Tween-20, 0.2 mg/ml BSA; 25 C; 10 min per concentration, then washed; conditions: tags: His6-TwinStrep-SUMO cleaved; N-terminal SNAP kept (SNAP-Surface 488); label: 3' end held by stalled T7 RNA polymerase

Going from B1 to B2, the Kd falls from 0.053 ± 0.02 µM to 0.0138 ± 0.0018 µM (3.8-fold).

First: B3
Second: B4
The Kd of the first is 1.9-fold lower: 0.041 ± 0.0065 µM for the first, 0.077 ± 0.023 µM for the second.

Compared with B5, B6 is 12-fold higher in Kd: 0.00505 ± 0.00055 µM for the first, 0.061 ± 0.0165 µM for the second. The first binds more tightly here.

First: B7
Second: B8
The Kd of the first is 4-fold higher: 0.0262 ± 0.0025 µM for the first, 0.00655 ± 0.00085 µM for the second.

Going from B9 to B10, the Kd rises from 0.0114 ± 0.0014 µM to 0.041 ± 0.008 µM (3.6-fold).

Compared with B11, B12 is 1.9-fold higher in Kd: 0.042 ± 0.0045 µM for the first, 0.0815 ± 0.03 µM for the second.

B13 and B14 are within 1.5-fold of each other in Kd: 0.0135 ± 0.0017 µM for the first, 0.0196 ± 0.0019 µM for the second.

Compared with B15, B16 is 3.7-fold lower in Kd: 0.0445 ± 0.005 µM for the first, 0.012 ± 0.0007 µM for the second. The second binds more tightly here.

From article PMC10786891, “Massively parallel profiling of RNA-targeting CRISPR-Cas13d”
